Tests used:
Assay in all cases: bead flow cytometry, AUC minus CD4
[1] = target: T1, HCoV-NL63 spike protein (Sino Biological 40604-V08B) (HCoV-NL63, UniProt Q6Q1S2 19-1296)
T1 sequence: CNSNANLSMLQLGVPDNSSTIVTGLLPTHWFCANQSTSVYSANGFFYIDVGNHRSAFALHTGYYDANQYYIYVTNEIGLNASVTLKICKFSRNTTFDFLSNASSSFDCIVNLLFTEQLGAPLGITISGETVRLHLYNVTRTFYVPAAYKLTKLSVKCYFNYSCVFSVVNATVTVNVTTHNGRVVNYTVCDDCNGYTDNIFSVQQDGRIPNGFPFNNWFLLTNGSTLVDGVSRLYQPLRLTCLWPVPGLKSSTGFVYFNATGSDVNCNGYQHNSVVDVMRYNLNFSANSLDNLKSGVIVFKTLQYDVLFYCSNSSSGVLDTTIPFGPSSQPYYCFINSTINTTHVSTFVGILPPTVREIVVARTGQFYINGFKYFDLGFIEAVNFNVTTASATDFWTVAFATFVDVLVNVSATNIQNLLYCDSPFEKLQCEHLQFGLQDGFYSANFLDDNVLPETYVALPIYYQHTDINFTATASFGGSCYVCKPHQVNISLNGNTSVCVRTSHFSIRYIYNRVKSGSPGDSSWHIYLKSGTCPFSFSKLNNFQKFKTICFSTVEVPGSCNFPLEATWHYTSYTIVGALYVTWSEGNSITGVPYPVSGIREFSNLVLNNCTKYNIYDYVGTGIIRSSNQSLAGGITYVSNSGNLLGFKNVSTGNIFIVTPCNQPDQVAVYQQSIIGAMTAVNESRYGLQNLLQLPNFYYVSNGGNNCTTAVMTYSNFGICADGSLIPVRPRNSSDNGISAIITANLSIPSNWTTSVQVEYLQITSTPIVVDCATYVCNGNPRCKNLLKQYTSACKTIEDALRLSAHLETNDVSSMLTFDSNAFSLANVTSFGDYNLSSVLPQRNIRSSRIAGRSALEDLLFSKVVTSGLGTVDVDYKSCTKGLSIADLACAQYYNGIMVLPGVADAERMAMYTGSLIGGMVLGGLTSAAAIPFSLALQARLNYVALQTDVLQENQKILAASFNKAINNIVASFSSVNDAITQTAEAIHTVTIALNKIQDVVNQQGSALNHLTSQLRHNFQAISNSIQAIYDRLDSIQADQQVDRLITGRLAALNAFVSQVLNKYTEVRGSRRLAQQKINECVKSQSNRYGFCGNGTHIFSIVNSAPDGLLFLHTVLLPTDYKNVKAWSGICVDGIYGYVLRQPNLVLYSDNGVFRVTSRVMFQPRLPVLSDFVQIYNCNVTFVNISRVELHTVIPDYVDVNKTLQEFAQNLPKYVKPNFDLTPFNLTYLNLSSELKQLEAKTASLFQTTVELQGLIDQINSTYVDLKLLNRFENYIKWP

[2] = target: T2, HCoV-229E spike protein (Sino Biological 40605-V08B) (HCoV-229E, UniProt P15423 16-1115)
T2 sequence: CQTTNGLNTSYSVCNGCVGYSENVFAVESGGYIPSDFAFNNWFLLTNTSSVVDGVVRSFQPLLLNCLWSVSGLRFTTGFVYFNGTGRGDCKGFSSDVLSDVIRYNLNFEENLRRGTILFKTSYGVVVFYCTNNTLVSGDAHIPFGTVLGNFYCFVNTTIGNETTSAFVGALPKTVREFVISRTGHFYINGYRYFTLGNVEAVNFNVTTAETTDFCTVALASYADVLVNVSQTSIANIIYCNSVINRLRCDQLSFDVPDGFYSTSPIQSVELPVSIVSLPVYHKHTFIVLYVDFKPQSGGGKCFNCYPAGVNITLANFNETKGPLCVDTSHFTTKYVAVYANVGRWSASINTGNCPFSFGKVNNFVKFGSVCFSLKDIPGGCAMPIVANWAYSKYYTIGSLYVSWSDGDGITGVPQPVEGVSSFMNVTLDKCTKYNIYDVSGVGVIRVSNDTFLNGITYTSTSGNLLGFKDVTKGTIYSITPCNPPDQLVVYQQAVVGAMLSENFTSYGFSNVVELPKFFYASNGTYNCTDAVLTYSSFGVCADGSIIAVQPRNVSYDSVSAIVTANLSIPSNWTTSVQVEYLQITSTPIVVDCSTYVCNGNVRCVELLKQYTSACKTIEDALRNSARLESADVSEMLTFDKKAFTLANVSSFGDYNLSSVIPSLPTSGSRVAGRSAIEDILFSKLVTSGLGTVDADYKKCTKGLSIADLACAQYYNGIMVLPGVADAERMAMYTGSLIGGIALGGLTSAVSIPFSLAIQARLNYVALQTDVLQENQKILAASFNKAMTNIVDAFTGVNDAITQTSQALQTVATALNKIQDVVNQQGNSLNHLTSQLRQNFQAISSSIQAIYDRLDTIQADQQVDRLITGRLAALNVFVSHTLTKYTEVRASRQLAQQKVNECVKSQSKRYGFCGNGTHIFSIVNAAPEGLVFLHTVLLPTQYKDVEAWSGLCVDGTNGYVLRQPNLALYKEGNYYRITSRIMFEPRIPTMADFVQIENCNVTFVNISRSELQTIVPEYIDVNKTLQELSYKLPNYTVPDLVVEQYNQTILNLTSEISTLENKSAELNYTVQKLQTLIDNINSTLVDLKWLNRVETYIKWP

[3] = target: SARS-CoV-2 spike receptor binding domain (RBD), recombinant (SARS-CoV-2, UniProt P0DTC2 319-541)
[4] = target: SARS-CoV-2 spike N-terminal domain (NTD), recombinant (SARS-CoV-2, UniProt P0DTC2 14-305)

Measured: binding result

B1: COV77-35 (antibody, V domains shown)
VH: QMQLQESGPGLVKPSQTLSLTCAVSGGSISSDGYYWNWVRQHPGKGLELIAYIYYNGRPYYNPSLRSRVNISLDTSMNQFSLRVKSLTAADTAVYYCARGRLGYCAAGSCFLDSFDYWGQGALVTVSS
VL: EIVMTQYPATLSVSPGETATLSCRASESISRNLAWYQQKPGQAPRLLIYGASTRATGIPARFSGSGSGTEFALTISSLQAEDFAVYSCQQYHNWLLTFGGGTKVEIK
no binding (tested: 200 µg/mL): all assays above

B2: COV77-14 (antibody, V domains shown)
VH: QVQLQESGPGLVKASQTLSLTCAVSGGSISSGDYYWTWIRSHPGKGLEWIAYIYYNGRTYYNPSLKSRLTISIDRSKNEFSLKVRSVTAADSAAYYCARGRLGFCAAGSCFLDSLDFWGQGTLVTVSS
VL: EIVMTQSPATLSVSPGERVTLSCRASESISNNLAWYQQKPGQAPRLLIYGASTRATGIPARFSGSGSGTEFALIISSLQSEDFAVYFCQQYYNWLLTFGGGTKVEIK
no binding (tested: 200 µg/mL): all assays above

B3: COV57-45 (antibody, V domains shown)
VH: QVQLVQSGTEVKKPGSSVKVSCRASGGTLSSYSVSWVRQAPGQGLEWMGRIIPILDKKTYAQKYQGRVTILADTSTSTVYMELSSLKSDDSAVYFCTTFDYDTSGQRDQHDYWGQGTPVTVSS
VL: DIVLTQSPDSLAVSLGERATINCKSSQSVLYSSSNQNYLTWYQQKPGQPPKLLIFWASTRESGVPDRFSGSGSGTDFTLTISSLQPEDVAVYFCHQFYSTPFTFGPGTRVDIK
no binding (tested: 200 µg/mL): all assays above

B4: COV57-19 (antibody, V domains shown)
VH: QVQLQESGPGLVKPSGTLSLTCAVSGDSISSSNWWSWVRQPPGKGLEWIGEIYQSGTTNNNPSLKSRVTISIDKSKNQFSLNLTSVTAADTAVYYCARAPLVFRSYGMDVWGQGTTVTVSS
VL: DIQMTQSPSSLSASVGDRVTITCRASQTIRTYLNWYQQKPGKAPKLLIYDASNLQSGVPSRFSGSGSGTDFTLTISSLEPEDFATYYCQQSYITPPWTFGQGTKVEIK
no binding (tested: 200 µg/mL): all assays above

B5: COV57-05 (antibody, V domains shown)
VH: QVQLLESGPGLVKPSGTLSLTCDVSGDSISSSNWWSWVRQSPGKGLEWIGEIYQSGTTNNNPSLKSRVTISIDKSKNQFSLNLTSVTAADTAVYYCARAPLVFRSYGMDVWGQGTTVTVSS
VL: DIQMTQSPSSLSASVGDRVTITCRASQTIRTYLNWYQQKPGKAPKLLIYDASNLQSGVPSRFSGSGSGTDFTLTISSLEPEDFATYYCQQSYITPPWTFGQGTRVEIK
no binding (tested: 200 µg/mL): all assays above

B6: COV77-46 (antibody, V domains shown)
VH: QVQLQESGPGLVKPSQPLSLTCAVSGDSISSGGNYWSWIRQHPGKGLECIAYFYYTGRTYYNPSLKSRVTISLDTSKNQFSLKVSSVTAADTAVYFCARGRLGHCGGGSCFLDPLDYWGQGSLVTVSS
VL: EIVMTQSPATLSVSPGERATLSCRASERISSNLAWSQHKVGQAPRLLIYGASTRATGIPARFSGSGSGTEFTLTISSLQSEDFAVYYCHQYHNWLLTFGGGTKVEIK
no binding (tested: 200 µg/mL): all assays above

B7: COV49-18 (antibody, V domains shown)
VH: EVQLLESGGGLVQPGGSLRVSCAVSGFTFSNYAMSWVRQAPGKGLDWVSAISGSGETRYYADFVKGRFTISRDNSKNTLYLQMNSLRGEDTAVYYCVKGAFYNILSSIIVEGDYWGQGTLVTVSS
VL: DVVMTQSPLSLPVTLGQPASISCRSSQSLVFSDGNTYLNWFQQRPGQSPRRLIYKVSKRDSGVPDRFSGSGSGTDFTLKISRVEAEDVGVYYCMQGTHWLSITFGQGTRLEIK
no binding (tested: 200 µg/mL): all assays above

B8: COV77-76 (antibody, V domains shown)
VH: QVQLQESGPGLVKPSETLSLTCTVSGGSISSFYWSWIRQPPGKRLEWIGYIYYRGSTNYNPSLKSRVTMSVDTSKNQFSLKLSSVTAADTAVYYCARELPNNWLDPWGQGTLVTVSS
VL: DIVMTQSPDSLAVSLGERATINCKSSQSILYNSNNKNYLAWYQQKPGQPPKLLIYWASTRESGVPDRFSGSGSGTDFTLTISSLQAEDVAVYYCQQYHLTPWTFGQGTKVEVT
no binding (tested: 200 µg/mL): all assays above

B9: COV77-43 (antibody, V domains shown)
VH: QVQLVESGGGVVQPGRSLRLSCSASGFTFSDYGMNWVRQAPGKGLEWVAMIWYDGSNYFYRDSVKGRFAISRDNSKNMVFLQMDNLRAEDTAVYFCARGTHFWSGLSLDAFDMWGQGTVVTVSS
VL: EIVMTQSPLSLPVTPGEPASISCRSSRSLLHYNGHNYLDWYLQKPGQSPQLLIYLGSNRAPGVPDRFSGSGSGTDFTLKISRVEAEDVGVYYCMQALQLNLITFGQGTRLEIK
no binding (tested: 200 µg/mL): all assays above

B10: COV93-60 (antibody, V domains shown)
VH: QVQLQESGPGLVKPSETLFLTCAVSGGSINSSYWSWIRQPPGKGLEWIGYIYYRGSTNYNPSLKSRVTISVDTSKNQFSLKLNSVTAADTAIYYCARENLWNWFDPWGQGILVTVSS
VL: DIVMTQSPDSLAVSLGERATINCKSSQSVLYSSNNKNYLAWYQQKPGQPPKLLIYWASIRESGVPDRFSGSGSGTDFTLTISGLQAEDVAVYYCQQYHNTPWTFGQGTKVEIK
no binding (tested: 200 µg/mL): all assays above

From patent US20250145690A1 (US Dept. of Health and Human Services, published 2025)
